Measurements: EP4233917A1, “ANTI-INFECTIVE CONJUGATE FOR USE IN THE TREATMENT OF ZIKA VIRUS INFECTION” (Universitat Pompeu Fabra, priority 2022, dated 2023)
Like-named read-outs stand apart in the source and are kept apart here. Ends that are not written are not given here. Peptide text beside a SMILES is read from it. * marks the point of attachment. X1 = C=CC1=C(C)c2cc3[nH]c(cc4nc(cc5[nH]c(cc1n2)c(C)c5CCC(=O)*)C(CCC(=O)O)=C4C)c(C)c3C=C; X3 = C=CC1=C(C)c2cc3[nH]c(cc4nc(cc5[nH]c(cc1n2)c(C)c5CCC(=O)O)C(CCC(=O)*)=C4C)c(C)c3C=C; X2 = CCC1=C(C)c2cc3[nH]c(cc4nc(cc5[nH]c(cc1n2)c(C)c5CCC(=O)O)C(CCC(=O)*)=C4C)c(C)c3CC; X4 = CCC1=C(C)c2cc3[nH]c(cc4nc(cc5[nH]c(cc1n2)c(C)c5CCC(=O)*)C(CCC(=O)O)=C4C)c(C)c3CC

Assays:
JEG-3 cells [1] = details: 10 µM on apical side, 24 h incubation; percentage of compound in the basolateral side
Method: (§2) Conjugate translocation was determined by fluorescence intensity (λex= 410 nm, λem = 625 nm for MP conjugates; λex=410 nm, λem=635 nm for PP conjugates). […] After 24 h incubation, samples from the basolateral side (2) were collected and analyzed. Fluorescence was measured in a Varioskan Lux plate reader (Thermo Scientific). PPC translocation (%) was calculated as follows: PPC translocation(%) = (F_i−Fcells)/(F_PPC−F_Medium) × 100 [formula] where Fi is the fluorescence intensity of the sample collected at the basolateral side (2), Fcells is the intrinsic fluorescence intensity of cells without incubation with a peptide-protein conjugate PPC, FPPC is the intensity of total PPC initially added to the transwell apical side (1), and FMedium is the intensity of DMEM:F12 medium without phenol red.
JEG-3 cells were cultured as a monolayer on T-flasks in EMEM supplemented with 10% (v/v) FBS and 1% (v/v) Pen-Strep. Cells were grown in a humidified atmosphere of 5% CO2 at 37 °C with the medium changed every other day. Cells were allowed to grow until confluence in a culture T-flask, then carefully harvested with trypsin-EDTA and seeded (3000 cells/well) onto rat-tail collagen-coated tissue culture 24-well inserts (4). A cellular monolayer (3) with low permeability was formed 5 days after the incubation on the tissue culture insert (4). BPB translocation and integrity measurement methods are identical to those for the BBB in vitro model defined above.

HBEC-5i cells [2] = details: 10 µM on apical side, 24 h incubation; percentage of compound in the basolateral side
Method: HBEC-5i cells were cultured as a monolayer (3) on T-flasks in DMEM:F12 supplemented with 10% (v/v) FBS, 1% (v/v) Pen-Strep and 1% (v/v) ECGS. Cells were grown in a humidified atmosphere of 5% CO2 at 37 °C (MCO-18AIC (UV), Sanyo, Japan) with the medium changed every other day. Cells were allowed to grow until confluence in a culture T-flask, then carefully harvested with trypsin-EDTA and seeded (8000 cells/well) into tissue culture 24-well inserts (4) (transparent polyester membrane with 1.0 µm pores) (BD Falcon, USA) pre-coated with attachment factor protein solution. The medium was changed every other day for 5-8 days, afterwards cells were washed with 1 × PBS followed by DMEM:F12 medium without phenol red. Next, the conjugates were diluted in DMEM:F12 without phenol red, until reaching a final 10 µM concentration, and were added to the apical side (1) of the in vitro BBB model.
as §2

HBEC-5i cells [3] = details: concentrations of up to 50 µM, 24 h
Method: (§3) HBEC-5i cells and JEG-3 cells were plated in attachment factor protein and rat-tail collagen, respectively, pre-coated 96-well flat bottom clear, black polystyrene plate (Corning, New York, USA). Afterwards cells were cultured in complete medium at 37 °C in a 5% CO2 atmosphere, with medium replaced every 2 days. When the cellular monolayer was formed, cells were treated with various concentrations of conjugates in the 6.25-50 µM range, for 24 h at 37 °C in a 5% CO2 atmosphere. Viability was evaluated by the CellTiter-Blue® assay (Promega, WI, USA), based on resazurin reduction into highly fluorescent resorufin by metabolically active cells. By distinguishing metabolic from non-metabolic cells, cytotoxicity can be indirectly determined. After incubation, cells were washed with PBS, pH 7.4, and 15 µL of CellTiterBlue® reagent in 100 µL of complete medium was added to the cells and incubated for 1.5 h at 37 °C in 5% CO2. Fluorescence (λex=560 nm, λem=590 nm), was measured in a Varioskan Lux plate reader. Complete medium and medium containing 0.25% Triton X-100 were used as positive and negative controls (100 and 0% viability), respectively. Cell viability (%) was determined as: Cell viability(%) = (F_treated−F_blank)/(F_(nontreated)−F_blank) × 100 [formula] where Ftreated is the fluorescence intensity of cells treated with a conjugate, Fnon treated is the fluorescence of untreated cells and Fblank is the fluorescence of CellTiterBlue® reagent in complete medium without cells.

[4] = Serum stability in human serum; type: in vitro ADME; details: for half-life at 0.05 mM: human serum (1:1 v/v with HEPES buffer), pH 7.8, 37 °C, read-out: Serum half-life time (converted)
Method: Next, 600 µL of the solution comprising the conjugate or peptide were mixed (1:1 v/v) with 600 µL of human serum, to reach a final concentration of 0.05 mM. The mixture was incubated at 37 °C and, at various time points, 50 µL (in triplicate) were taken and precipitated with 200 µL cold methanol. The samples were centrifuged at 13000 rpm, 10 min, +4 °C. Afterwards, 50 µL of each supernatant were injected on an LC-20AD instrument (Shimadzu) equipped with a Luna C18 column (4.6 mm × 50 mm, 3 µm, Phenomenex, USA) and analyzed using a 0%-95% linear gradient of MeCN into 0.1% TFA in H2O over 15 min with 1 mL/min flow rate. PDA detection at 220 nm and 401 nm was used and the half-life times were calculated by peak area integration at 401 nm, the λmax of MP and PP. Controls included blank serum (25 µL each of 1:1 v/v serum + HEPES buffer, then precipitation with 200 µL cold methanol), untreated conjugate/peptide (25 µL of 0.1 mM stock in HEPES buffer + 25 µL HEPES buffer, then precipitation with 200 µL cold methanol), and a zero-time sample (200 µL cold methanol + 25 µL serum + 25 µL 0.1 mM conjugate/peptide stock), the conjugate/peptide added last to avoid any contact with protease. Controls were analyzed by LC and LC-MS as described above.

HBEC-5i cells [5] = details: FD4 content in basolateral side after 24 h incubation with compound, then 2 h FD4; untreated BBB 10.3%
Method: (§4) After 24 h incubation with conjugates in the set-up shown in Figure 1, an in vitro integrity assay was performed. HBEC-5i (for BBB) or JEG-3 (for BPB) cells were washed twice with PBS and once with a medium without phenol red. DMEM:F12 medium was used with HBEC-5i cells and EMEM medium was used with JEG-3 cells. Then, previously diluted 4 kDa fluorescein isothiocyanate-dextran (FD4) (Sigma-Aldrich, Spain) in the medium indicated above for each cell line and without phenol red to an absorbance of 0.1 was added to the apical side (1) and incubated for 2 h. Samples were collected at the basolateral side (2), and fluorescence intensity was measured at λex=493 nm and λem=520 nm using a Varioskan Lux plate reader. Barrier integrity was evaluated from FD4 permeability as follows: FD4 Permeability(%) = (Fi −Fcells)/(FFD4 −FMedium) × 100 [formula] where Fi is the fluorescence intensity of the sample at the basolateral side (2), Fcells is the intrinsic fluorescence intensity of cells without FD4 incubation, FFD4 is the intensity of FD4 stock initially added to the apical side (1), and FMedium is the intensity of the medium indicated above for each cell line and without phenol red.

JEG-3 cells [6] = details: FD4 content in basolateral side after 24 h incubation with compound, then 2 h FD4; untreated BPB 1.23%
Method: as §4
JEG-3 cells were cultured as a monolayer on T-flasks in EMEM supplemented with 10% (v/v) FBS and 1% (v/v) Pen-Strep. Cells were grown in a humidified atmosphere of 5% CO2 at 37 °C with the medium changed every other day. Cells were allowed to grow until confluence in a culture T-flask, then carefully harvested with trypsin-EDTA and seeded (3000 cells/well) onto rat-tail collagen-coated tissue culture 24-well inserts (4). A cellular monolayer (3) with low permeability was formed 5 days after the incubation on the tissue culture insert (4).

JEG-3 cells [7] = details: JEG-3, concentrations of up to 50 µM, 24 h
Method: as §3

ZIKV = details: read-out: IC50 value for inactivation of ZIKV, cited from earlier work
ZIKV^BR [8] = details: virus pre-treated 1 h at 37 °C, in the dark, 0.01-50 µM
Method: ZIKV^BR was propagated in C6/36 cells using a multiplicity of infection (MOI) of 0.01. After infection, cells were cultured for 7 days. The culture medium collected from the infected cultures was centrifuged at 700 g to remove cellular debris, stored in aliquots at -80 °C and titrated by plaque assay.
To determine the effect of conjugates on ZIKV^BR as prepared above, 10^5 plaque forming units (PFU) were pre-treated with different concentrations of conjugates in the 0.01-50 µM range for 1 h at 37 °C, in the dark. After treatment, viral samples were serially diluted (10-fold) for titration by plaque assay. Samples were incubated for 1 h at 37 °C and 5% CO2 with Vero cells. After infection, the medium was removed and 1 mL DMEM containing 1% (v/v) FBS, 100 U/mL penicillin, 100 µg/mL streptomycin and 1.5% carboxymethylcellulose was added to each well. The plates were incubated at 37 °C and 5% CO2. After 5 days cells were fixed by 1 mL of 4% (v/v) formaldehyde in H2O for 30 min. Each plate was washed and stained with a 1% (v/v) crystal violet, 20% (v/v) ethanol solution. The number of plaques on each well was counted and corrected for well dilution to determine the pfu/mL number. The half-maximum inhibitory concentration (IC50) was determined by non-linear regression with sigmoidal profile and variable slope using the software Graphpad Prism (version 6.0), only on treatments that achieved total inhibition.

HBEC-5i cells [9] = tested on: HBEC-5i cells
Method: as §4

ZIKV^BR [10] = assay: ZIKV inactivation assay (plaque assay on Vero cells); type: cell-based, Zika virus; details: virus pre-treated 1 h at 37 °C, in the dark, 0.01-50 µM
JEG-3 cells [11] = assay: in vitro BPB integrity assay (FD4 permeability) after translocation assay; type: cell-based
JEG-3 cells [12] = type: in vitro ADME; details: human, 24 h, 10 µM
Method: (§1) PPC translocation (%) was calculated as follows: […]

HBEC-5i cells [13] = type: in vitro ADME; details: human, 24 h, 10 µM
Method: as §1

C=CC1=C(C)c2cc3[nH]c(cc4nc(cc5[nH]c(cc1n2)c(C)c5CCC(=O)N[C@H](C(=O)N[C@@H](CCC(N)=O)C(=O)N[C@@H](CCC(N)=O)C(=O)N[C@@H](CC(C)C)C(=O)N[C@H](C(=O)N[C@@H](CCCCN)C(=O)N[C@@H](CCCNC(=N)N)C(=O)N[C@@H](Cc1ccccc1)C(=O)N[C@@H](CO)C(=O)N[C@@H](CC(C)C)C(N)=O)[C@@H](C)O)C(C)C)C(CCC(=O)O)=C4C)c(C)c3C=C [(I)] (X1-VQQLTKRFSL-NH2)
BPB translocation (%) (JEG-3 cells [1]): 21.2% | BBB translocation (%) (HBEC-5i cells [2]): 43.6% | altered cell viability (HBEC-5i cells [3]): none | half-life at 0.05 mM [4]: 22.2 h | BBB FD4 (%) (HBEC-5i cells [5]): 13.6% | BPB FD4 (%) (JEG-3 cells [6]): 0.83% | altered cell viability (JEG-3 cells [7]): none

C=Cc1c(C)c2cc3[nH]c(cc4nc(cc5nc(cc1[nH]2)C(C)=C5CCC(=O)[O-])C(CCC(=O)[O-])=C4C)c(C)c3C=C.[Co+2] [CoPPIX]
IC50 (ZIKV; with light activation): 5.79 µM | IC50 (ZIKV; without light activation): 2.49 µM

CCC1=C(C)c2cc3[nH]c(cc4nc(cc5[nH]c(cc1n2)c(C)c5CCC(=O)O)C(CCC(=O)NCCCC[C@H](NC(=O)[C@H](CC(C)C)NC(=O)[C@H](CO)NC(=O)[C@H](Cc1ccccc1)NC(=O)[C@H](CCCNC(=N)N)NC(=O)[C@H](CCCCN)NC(=O)[C@@H](NC(=O)[C@H](CC(C)C)NC(=O)[C@H](CCC(N)=O)NC(=O)[C@H](CCC(N)=O)NC(=O)[C@@H](N)C(C)C)[C@@H](C)O)C(N)=O)=C4C)c(C)c3CC [Compound P2-MP] (H-VQQLTKRFSLK(X2)-NH2)
BPB translocation (%) (JEG-3 cells [1]): 6.9% | IC50 (ZIKV^BR [8]): > 50 µM | BBB translocation (%) (HBEC-5i cells [2]): 25.5% | altered cell viability (HBEC-5i cells [3]): none | half-life at 0.05 mM [4]: 10.7 h | BBB FD4 (%) (HBEC-5i cells [5]): 14.5% | BPB FD4 (%) (JEG-3 cells [6]): 1.30% | altered cell viability (JEG-3 cells [7]): none

C=CC1=C(C)c2cc3[nH]c(cc4nc(cc5[nH]c(cc1n2)c(C)c5CCC(=O)NCCCC[C@H](NC(=O)[C@H](CC(C)C)NC(=O)[C@H](CO)NC(=O)[C@H](Cc1ccccc1)NC(=O)[C@H](CCCNC(=N)N)NC(=O)[C@H](CCCCN)NC(=O)[C@@H](NC(=O)[C@H](CC(C)C)NC(=O)[C@H](CCC(N)=O)NC(=O)[C@H](CCC(N)=O)NC(=O)[C@@H](N)C(C)C)[C@@H](C)O)C(N)=O)C(CCC(=O)O)=C4C)c(C)c3C=C [Compound P2-PP] (H-VQQLTKRFSLK(X1)-NH2)
BPB translocation (%) (JEG-3 cells [1]): 7.9% | IC50 (ZIKV^BR [8]): > 50 µM | BBB translocation (%) (HBEC-5i cells [2]): 35.1% | altered cell viability (HBEC-5i cells [3]): none | half-life at 0.05 mM [4]: 3.6 h | BBB FD4 (%) (HBEC-5i cells [5]): 13.7% | BPB FD4 (%) (JEG-3 cells [6]): 0.90% | altered cell viability (JEG-3 cells [7]): none

CCC1=C(C)c2cc3[nH]c(cc4nc(cc5[nH]c(cc1n2)c(C)c5CCC(=O)O)C(CCC(=O)NCCCC[C@H](NC(=O)[C@H](Cc1ccc(O)cc1)NC(=O)[C@H](CCC(=O)O)NC(=O)[C@H](CCC(=O)O)NC(=O)[C@H](CCC(N)=O)NC(=O)[C@@H](NC(=O)CNC(=O)[C@@H](N)CO)[C@@H](C)O)C(N)=O)=C4C)c(C)c3CC [Compound P4-MP] (H-SGTQEEYK(X2)-NH2)
BPB translocation (%) (JEG-3 cells [1]): 13% | IC50 (ZIKV^BR [8]): > 50 µM | BBB translocation (%) (HBEC-5i cells [2]): 45.8% | altered cell viability (HBEC-5i cells [3]): none | half-life at 0.05 mM [4]: 3 h | BBB FD4 (%) (HBEC-5i cells [5]): 15.6% | BPB FD4 (%) (JEG-3 cells [6]): 1.1% | altered cell viability (JEG-3 cells [7]): none

C=CC1=C(C)c2cc3[nH]c(cc4nc(cc5[nH]c(cc1n2)c(C)c5CCC(=O)O)C(CCC(=O)NCCCC[C@H](NC(=O)[C@H](Cc1ccc(O)cc1)NC(=O)[C@H](CCC(=O)O)NC(=O)[C@H](CCC(=O)O)NC(=O)[C@H](CCC(N)=O)NC(=O)[C@@H](NC(=O)CNC(=O)[C@@H](N)CO)[C@@H](C)O)C(N)=O)=C4C)c(C)c3C=C [Compound P4-PP] (H-SGTQEEYK(X3)-NH2)
BPB translocation (%) (JEG-3 cells [1]): 15.6% | IC50 (ZIKV^BR [8]): > 50 µM | BBB translocation (%) (HBEC-5i cells [2]): 42.8% | altered cell viability (HBEC-5i cells [3]): none | half-life at 0.05 mM [4]: 3.3 h | BBB FD4 (%) (HBEC-5i cells [5]): 10.6% | BPB FD4 (%) (JEG-3 cells [6]): 1.2% | altered cell viability (JEG-3 cells [7]): none

CCC1=C(C)c2cc3[nH]c(cc4[nH]c(cc5nc(cc1n2)C(C)=C5CC)c(C)c4CCC(=O)O)c(CCC(=O)O)c3C [MP, mesoporphyrin IX]
BBB FD4 (%) (HBEC-5i cells [9]): 17.9% | IC50 (ZIKV^BR [10]): > 50 µM | BPB FD4 (%) (JEG-3 cells [11]): 1.68%

CCC1=C(C)c2cc3[nH]c(cc4nc(cc5[nH]c(cc1n2)c(C)c5CCC(=O)N[C@H](C(=O)N[C@@H](CCC(N)=O)C(=O)N[C@@H](CCC(N)=O)C(=O)N[C@@H](CC(C)C)C(=O)N[C@H](C(=O)N[C@@H](CCCCN)C(=O)N[C@@H](CCCNC(=N)N)C(=O)N[C@@H](Cc1ccccc1)C(=O)N[C@@H](CO)C(=O)N[C@@H](CC(C)C)C(N)=O)[C@@H](C)O)C(C)C)C(CCC(=O)O)=C4C)c(C)c3CC [MP-P1] (X4-VQQLTKRFSL-NH2)
BPB translocation (%) (JEG-3 cells [1]): 6.9% | IC50 (ZIKV^BR [8]): > 50 µM | BBB translocation (%) (HBEC-5i cells [2]): 30% | altered cell viability (HBEC-5i cells [3]): none | half-life at 0.05 mM [4]: 16.2 h | BBB FD4 (%) (HBEC-5i cells [5]): 19.9% | BPB FD4 (%) (JEG-3 cells [6]): 1.16% | altered cell viability (JEG-3 cells [7]): none

CCC1=C(C)c2cc3[nH]c(cc4nc(cc5[nH]c(cc1n2)c(C)c5CCC(=O)N[C@@H](CO)C(=O)NCC(=O)N[C@H](C(=O)N[C@@H](CCC(N)=O)C(=O)N[C@@H](CCC(=O)O)C(=O)N[C@@H](CCC(=O)O)C(=O)N[C@@H](Cc1ccc(O)cc1)C(N)=O)[C@@H](C)O)C(CCC(=O)O)=C4C)c(C)c3CC [MP-P3] (X4-SGTQEEY-NH2)
BPB translocation (%) (JEG-3 cells [1]): 14.2% | IC50 (ZIKV^BR [8]): 25.1 µM | BBB translocation (%) (HBEC-5i cells [2]): 46.6% | altered cell viability (HBEC-5i cells [3]): none | half-life at 0.05 mM [4]: 21.1 h | BBB FD4 (%) (HBEC-5i cells [5]): 14.6% | BPB FD4 (%) (JEG-3 cells [6]): 1.17% | altered cell viability (JEG-3 cells [7]): none

C=CC1=C(C)c2cc3[nH]c(cc4nc(cc5[nH]c(cc1n2)c(C)c5CCC(=O)O)C(CCC(=O)O)=C4C)c(C)c3C=C [PP, protoporphyrin IX]
BBB FD4 (%) (HBEC-5i cells [9]; human, 2 h, 10 µM): 24.7% | IC50 (ZIKV^BR [10]; Zika virus, Vero): > 50 µM | BPB FD4 (%) (JEG-3 cells [11]; human, 2 h, 10 µM): 0.87% | BPB translocation (%) (JEG-3 cells [12]): 14.2% | BBB translocation (%) (HBEC-5i cells [13]): 47.8%

C=CC1=C(C)c2cc3[nH]c(cc4nc(cc5[nH]c(cc1n2)c(C)c5CCC(=O)O)C(CCC(=O)N[C@@H](CO)C(=O)NCC(=O)N[C@H](C(=O)N[C@@H](CCC(N)=O)C(=O)N[C@@H](CCC(=O)O)C(=O)N[C@@H](CCC(=O)O)C(=O)N[C@@H](Cc1ccc(O)cc1)C(N)=O)[C@@H](C)O)=C4C)c(C)c3C=C [PP-P3] (X3-SGTQEEY-NH2)
BPB translocation (%) (JEG-3 cells [1]): 18.9% | IC50 (ZIKV^BR [8]): > 50 µM | BBB translocation (%) (HBEC-5i cells [2]): 43.2% | altered cell viability (HBEC-5i cells [3]): none | half-life at 0.05 mM [4]: 3.7 h | BBB FD4 (%) (HBEC-5i cells [5]): 9.6% | BPB FD4 (%) (JEG-3 cells [6]): 1.79% | altered cell viability (JEG-3 cells [7]): none

VQQLTKRFSL-NH2 [Peptide having SEQ ID NO1, reference compound]
Serum half-life time ([4]; 0.05 mM, 37 °C): 0.73 h
